Reference: paper PMC2745220 (Cell, 2008)

T1: ParB, purified (C. crescentus, UniProt P0CAV8 1-304)
T1 sequence (looked up): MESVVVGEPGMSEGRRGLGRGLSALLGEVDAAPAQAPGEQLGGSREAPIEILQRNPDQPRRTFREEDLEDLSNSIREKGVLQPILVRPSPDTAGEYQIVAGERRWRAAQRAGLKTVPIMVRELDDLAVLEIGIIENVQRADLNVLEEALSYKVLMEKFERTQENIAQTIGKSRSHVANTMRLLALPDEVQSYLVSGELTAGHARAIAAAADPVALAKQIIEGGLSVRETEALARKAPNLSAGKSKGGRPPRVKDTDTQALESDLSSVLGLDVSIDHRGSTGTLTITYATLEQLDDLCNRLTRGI


Legend:
ParB, purified = target: T1, ParB, purified; assay: SPR
native gel or EMSA = target: the molecule itself; assay: native gel or EMSA
SEC = target: the molecule itself; assay: SEC

| Kd (ParB, purified) [nM] | Binder | binding result (native gel or EMSA) | binding result (SEC) |
| --- | --- | --- | --- |
| 20 | PopZ (Polar Organizing Protein Z), purified, 6-His tag cleaved (natural protein, C. crescentus, UniProt Q9A8N4 1-177, looked up) MSDQSQEPTMEEILASIRRIISEDDAPAEPAAEAAPPPPPEPEPEPVSFDDEVLELTDPIAPEPELPPLETVGDIDVYSPPEPESEPAYTPPPAAPVFDRDEVAEQLVGVSAASAAASAFGSLSSALLMPKDGRTLEDVVRELLRPLLKEWLDQNLPRIVETKVEEEVQRISRGRGA | binds | – |
| – | 6His-PopZ (His-tagged PopZ) (natural protein, C. crescentus, UniProt Q9A8N4 1-177, looked up) MSDQSQEPTMEEILASIRRIISEDDAPAEPAAEAAPPPPPEPEPEPVSFDDEVLELTDPIAPEPELPPLETVGDIDVYSPPEPESEPAYTPPPAAPVFDRDEVAEQLVGVSAASAAASAFGSLSSALLMPKDGRTLEDVVRELLRPLLKEWLDQNLPRIVETKVEEEVQRISRGRGA | – | binds |
